Values belong to the binder of their own block, whether it stands above or below them.
What was measured:
[1] = target: T1, Soluble CD28-Ig (extracellular domain of human CD28 fused to the Fc portion of human IgG1) (human, UniProt P10747 19-152, biotin-conjugated (NHS-biotin) in the FACS binding assays); assay: two-color FACS of transfected 293 cells
T1 construct: extracellular domain; bought from R&D Systems; also called sCD28-Ig; CD28-Ig Fc; not shown: Fc portion of human IgG1
Procedure: (§1) The labeled cells were subsequently handled at 4° C., washed twice with DMEM/10% FCS and incubated with 0.1 μg/ml Streptavidin-phycoerythrin (PE) (Pharmingen, San Diego, Calif.) in 100 μl for 15 min. Biotin binds the fluorescence marker Streptavidin-PE. (R-PE has an excitation maximum of 565 nanometers (nm) and an emission maximum of 578 nm. B-PE has excitation and emission maxima of 545 nm and 578 nm, respectively. FITC has excitation and emission maxima of 494 and 519, respectively.) The cells were again washed twice and resuspended in 200 μl medium with 5 μg/ml propidium iodide (PI). The cells were then analyzed using a FACSCalibur flow cytometer and CellQuest software (BDIS, San Jose, Calif.). Cell sorting was performed by flow-cytometry based cell sorting screening methods using FACS (Fluorescence-Activated Cell Sorting) Vantage SE cell sorter (BDIS) (Becton Dickinson; San Jose, Calif.). The staining concentration was determined for each labeled protein to provide a maximal Mean Fluorescence Intensity (MFI) and minimal background signal (e.g., optimum staining concentration was the concentration per 10⁶ cells).

[2] = target: T2, Soluble CTLA-4-Ig (extracellular domain of human CTLA-4 fused to the Fc portion of human IgG1) (human, UniProt P16410 36-161, FITC-conjugated in the FACS binding assays); assay: two-color FACS of transfected 293 cells
T2 construct: extracellular domain; bought from R&D Systems; also called sCTLA-4-Ig; CTLA-4-Ig Fc; not shown: Fc portion of human IgG1
T2 sequence (P16410 36-161): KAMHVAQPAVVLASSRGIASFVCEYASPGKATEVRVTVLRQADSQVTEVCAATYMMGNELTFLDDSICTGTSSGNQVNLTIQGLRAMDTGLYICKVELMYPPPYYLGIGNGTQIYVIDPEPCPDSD
Procedure: as §1

[3] = target: T1, Soluble CD28-Ig (extracellular domain …); assay: competitive FACS on transfected cells, biotin-sCD28-Ig with FITC-sCTLA-4-Ig; grade 0-2 of CD28/CTLA-4 ratio vs WT hB7-1
[4] = target: CD28 receptor on human T cells (human, UniProt P10747 19-220); assay: cell-based or functional assay
[5] = target: T1, Soluble CD28-Ig (extracellular domain …); assay: flow cytometry of transiently transfected 293 cells

binding result [1]: binds | binding result [2]: binds
B1: Rhesus B7-1 (ligand)
chain: VIHVTKEVKEVATLSCGHNVSVEELAQTRIYWQKEKKMVLTMMSGDMNIWPEYKNRTIFDITNNLSIVILALRPSDEGTYECVVLKYEKDAFKREHLAEVMLSVKADFPTPSITDFEIPPSNIRRIICSTSGGFPEPRLSWLENGEELNAISTTVSQDPETELYTVSSKLDFNMTTNHSFMCLIKYGHLRVNQTFNWNTPKQEHFPDNLLPSWAITLISVNGIFVICCLTHCFAPRCRERRRNETLRRESVRPV
notes: also called rhesus monkey B7-1

Binding Score [3]: 2 | T cell proliferation (3H-thymidine incorporation), irradiated 293 transfectants with purified human T cells and anti-CD3 mAbs [4]: ~10 fold
B2: Round 2 CD28BP-15 (ligand)
chain: ITPKSVTKRVKETVMLSCDYNTSTEELTSLRIYWQKDSKMVLAILPGKVQVWPEYKNRTITDMNDNPRIVILALRPSDSGTYTCVIQKPVLKGAYKLEHLASVRLMIRADFPVPTINDLGNPSPNIRRLICSTSGGFPRPHLYWLENGEELNATNTTVSQDPGTELYMISSELDFNVTNNHSIVCLIKYGELSVSQIFPWSKPKQEPPIDQLPFWVIIPVSGALVLTAVVLYCLACRHVARWKRTRRNEETVGTERLSPIYLGSAQSSG
notes: also called clone R2 CD28BP-15; clone 15

binding result [5]: binds
B3: CD28BP-FLAG (CD28BP-15 with a FLAG-tag) (ligand)
chain: DYKDDDDKITPKSVTKRVKETVMLSCDYNTSTEELTSLRIYWQKDSKMVLAILPGKVQVWPEYKNRTITDMNDNPRIVILALRPSDSGTYTCVIQKPVLKGAYKLEHLASVRLMIRADFPVPTINDLGNPSPNIRRLICSTSGGFPRPHLYWLENGEELNATNTTVSQDPGTELYMISSELDFNVTNNHSIVCLIKYGELSVSQIFPWSKPKQEPPIDQLPFWVIIPVSGALVLTAVVLYCLACRHVARWKRTRRNEETVGTERLSPIYLGSAQSSG
notes: also called FLAG-construct of CD28BP-15

Source: patent US20100261660A1 (published 2010)
